According to patent US10160948B2, “Pluripotent embryonic-like stem cells, compositions, methods and uses thereof” (ABT HOLDING COMPANY, priority 1999, dated 2018):

Key:
[1] = system: pluripotent stem cells; assay: Proliferation and phenotypic responses to bioactive factors: pluripotent cells; assay type: cell-based
Description: (§1) Having access to mixed populations of progenitor stem cells, progenitor stem cell clones, and pluripotent stem cell clones permits one to address the influence of various bioactive factors (e.g. recombinant growth factors, purified compounds, and novel inductive factors) on the growth characteristics and phenotypic expression of these stem cells.
Cryopreserved cells are thawed and plated in MSC-1 at 5, 10, or 20×10^3 cells per well of gelatinized 24-well plates following the standard protocol. Twenty-four hours after initial plating the medium is changed to testing medium (TM) 1 to 6 (TM-1, TM-2, TM-3, TM-4, TM-5, or TM-6). TM-1 to TM-4 consist of Ultraculture (cat. no. 12-725B, lot. nos. OMO455 [TM-1], 1M1724 [TM-2], 2M0420 [TM-3], or 2M0274 [TM-4], Bio-Whittaker, Walkersville, Md.), medium (EMEM or Opti-MEM 0.01 mM β-mercaptoethanol), and 1% (v/v) antibiotic-antimycotic, pH 7.4. TM-5 consists of 98% (v/v) medium, 1% (v/v) HS, and 1% (v/v) antibiotic-antimycotic, pH 7.4. TM-6 consists of 98.5% (v/v) medium, 0.5% (v/v) HS, and 1% (v/v) antibiotic-antimycotic, pH 7.4. […] Four testing media (TM#'s 1-4), each containing various concentrations of Ultraculture, were used as. […] The four Ultraculture-based testing media were: TM-1=15% (v/v) Ultraculture (Lot no. OMO455): 84% (v/v) medium: 1% (v/v) antibiotics; TM-2=15% (v/v) Ultraculture (Lot no. 1M1724): 84% (v/v) medium: 1% (v/v) antibiotics; TM-3=50% (v/v) Ultraculture (Lot no. 2M0420): 49% (v/v) medium: 1% (v/v) antibiotics; and TM-4=75% (v/v) Ultraculture (Lot no. 2M0274): 24% (v/v) medium: 1% (v/v) antibiotics. Pre-incubation for 24 hr in testing medium alone is used to wash out any potential synergistic components in the MSC-1 medium. Twenty-four hours later the testing medium is changed to one of the following. For controls, TM-1 to TM-6 alone is used. To identify clones of progenitor cells, the medium is replaced with TM-1 to TM-6 containing 2 μg/ml insulin (Sigma), an agent that accelerates the appearance of phenotypic expression markers in progenitor cells (TABLE 12). […]

[2] = system: progenitor stem cells; assay: Proliferation and phenotypic responses to bioactive factors: progenitor cells; assay type: cell-based
Description: as §1
Cryopreserved cells are thawed and plated in MSC-1 at 5, 10, or 20×10^3 cells per well of gelatinized 24-well plates following the standard protocol. Twenty-four hours after initial plating the medium is changed to testing medium (TM) 1 to 6 (TM-1, TM-2, TM-3, TM-4, TM-5, or TM-6). TM-1 to TM-4 consist of Ultraculture (cat. no. 12-725B, lot. nos. OMO455 [TM-1], 1M1724 [TM-2], 2M0420 [TM-3], or 2M0274 [TM-4], Bio-Whittaker, Walkersville, Md.), medium (EMEM or Opti-MEM 0.01 mM β-mercaptoethanol), and 1% (v/v) antibiotic-antimycotic, pH 7.4. TM-5 consists of 98% (v/v) medium, 1% (v/v) HS, and 1% (v/v) antibiotic-antimycotic, pH 7.4. TM-6 consists of 98.5% (v/v) medium, 0.5% (v/v) HS, and 1% (v/v) antibiotic-antimycotic, pH 7.4. […] Four testing media (TM#'s 1-4), each containing various concentrations of Ultraculture, were used as. […]

[3] = presence and approximate distribution of differentiated phenotypes within the culture wells

B1: PDECGF: Platelet-derived endothelial cell growth factor (protein, UniProt P19971 11-482, looked up)
Thymidine phosphorylase: APPAPGDFSGEGSQGLPDPSPEPKQLPELIRMKRDGGRLSEADIRGFVAAVVNGSAQGAQIGAMLMAIRLRGMDLEETSVLTQALAQSGQQLEWPEAWRQQLVDKHSTGGVGDKVSLVLAPALAACGCKVPMISGRGLGHTGGTLDKLESIPGFNVIQSPEQMQVLLDQAGCCIVGQSEQLVPADGILYAARDVTATVDSLPLITASILSKKLVEGLSALVVDVKFGGAAVFPNQEQARELAKTLVGVGASLGLRVAAALTAMDKPLGRCVGHALEVEEALLCMDGAGPPDLRDLVTTLGGALLWLSGHAGTQAQGAARVAAALDDGSALGRFERMLAAQGVDPGLARALCSGSPAERRQLLPRAREQEELLAPADGTVELVRALPLALVLHELGAGRSRAGEPLRLGVGAELLVDVGQRLRRGTPWLRVHRDGPALSGPQSRALQEALVLSDRAPFAAPSPFAELVLPPQQ
Question: For B1, which “Proliferation, Pluripotent: number of times the agent increased the DNA content per well versus its respective control” value [1] is on record?
Answer: 1 times

Question: What about the “activity on pluripotent and progenitor stem cells, in words” value ([1]; pluripotent and progenitor cells) of the same molecule?
Answer: no measurable effect on either progenitor or pluripotent stem cells

Question: And the “Phenotypic Expression, Pluripotent” value [1, 3]?
Answer: 0

Question: And the “Proliferation, Progenitor: number of times the agent increased the DNA content per well versus its respective control” value [2]?
Answer: 1 times

Question: And the “Phenotypic Expression, Progenitor” value [2, 3]?
Answer: All+
